Test results reported in patent US20120301476A1 (TORAY INDUSTRIES, published 2012).

What was measured:
[1] = target: T1, human CAPRIN-1 protein on the cell surfaces of human cancer cell lines and in human cancer tissues (human, UniProt Q14444 2-709); assay: cell-based or functional assay
T1 sequence (looked up): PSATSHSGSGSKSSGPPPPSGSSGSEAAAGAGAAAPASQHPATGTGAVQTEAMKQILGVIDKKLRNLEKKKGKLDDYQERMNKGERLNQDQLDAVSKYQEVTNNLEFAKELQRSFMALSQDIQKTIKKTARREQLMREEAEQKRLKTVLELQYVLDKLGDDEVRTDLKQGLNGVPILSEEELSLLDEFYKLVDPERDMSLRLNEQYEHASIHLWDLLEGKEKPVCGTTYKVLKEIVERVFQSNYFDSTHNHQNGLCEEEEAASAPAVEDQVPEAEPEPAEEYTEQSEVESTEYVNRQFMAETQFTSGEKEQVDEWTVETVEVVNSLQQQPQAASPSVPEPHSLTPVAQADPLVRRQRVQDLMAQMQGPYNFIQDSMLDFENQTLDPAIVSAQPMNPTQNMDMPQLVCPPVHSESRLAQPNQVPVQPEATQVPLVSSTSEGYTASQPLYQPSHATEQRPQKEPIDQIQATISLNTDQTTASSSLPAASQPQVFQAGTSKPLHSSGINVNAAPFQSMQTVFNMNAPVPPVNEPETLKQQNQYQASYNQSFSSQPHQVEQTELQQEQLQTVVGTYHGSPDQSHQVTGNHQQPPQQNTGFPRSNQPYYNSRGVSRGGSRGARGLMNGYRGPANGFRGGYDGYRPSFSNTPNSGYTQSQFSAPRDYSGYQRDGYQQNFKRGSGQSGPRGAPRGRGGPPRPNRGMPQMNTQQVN

[2] = target: T2, recombinant human CAPRIN-1 protein having the amino acid sequence represented by SEQ ID NO: 2 (prepared in … (human, UniProt Q14444 1-709, limits assumed)); assay: SPR (BIACORE2000), CAPRIN-1 recombinant protein amine-coupled to CM5 chip, antibody as analyte
T2 construct: Expressed in E. coli from pET30a; the His-tag was cleaved off with enterokinase; also called CAPRIN-1 recombinant protein; CAPRIN-1 molecule
T2 sequence: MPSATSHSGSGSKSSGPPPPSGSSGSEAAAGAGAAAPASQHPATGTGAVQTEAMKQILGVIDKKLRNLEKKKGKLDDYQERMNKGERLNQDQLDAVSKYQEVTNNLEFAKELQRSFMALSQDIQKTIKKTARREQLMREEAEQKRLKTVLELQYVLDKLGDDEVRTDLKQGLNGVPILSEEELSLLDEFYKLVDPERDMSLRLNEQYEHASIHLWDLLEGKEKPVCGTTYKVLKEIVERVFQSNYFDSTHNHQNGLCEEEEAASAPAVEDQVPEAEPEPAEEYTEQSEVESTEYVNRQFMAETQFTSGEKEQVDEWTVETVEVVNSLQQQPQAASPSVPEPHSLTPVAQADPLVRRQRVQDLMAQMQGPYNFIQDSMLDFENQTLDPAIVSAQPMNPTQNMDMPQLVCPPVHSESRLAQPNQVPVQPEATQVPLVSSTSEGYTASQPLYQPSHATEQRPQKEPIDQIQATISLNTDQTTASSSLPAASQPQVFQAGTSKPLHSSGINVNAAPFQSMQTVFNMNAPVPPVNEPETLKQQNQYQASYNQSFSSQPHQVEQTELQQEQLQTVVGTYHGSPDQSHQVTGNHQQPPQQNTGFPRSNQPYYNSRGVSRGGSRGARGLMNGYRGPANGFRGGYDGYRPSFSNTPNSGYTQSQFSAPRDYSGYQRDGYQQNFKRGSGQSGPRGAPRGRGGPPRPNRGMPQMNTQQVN
Experimental: As a reference control (reference cell), a sensor chip with 20 μg/ml bovine serum-derived albumin immobilized thereto by the same method was used. A sensor chip to which the CAPRIN-1 molecule had been immobilized was set in BIACORE2000, 40 μL, each of the antibody solution (analyte) prepared to have a concentration (100, 80, 40, 20, 10, 5, or 2.5 μg/mL) was applied at a flow rate of 20 μL/minute, the surface plasmon resonance angle at the time of binding of an antibody to the CAPRIN-1 molecule immobilized on the sensor chip was measured, so that each RU value (Resonance Unit) was obtained. Next, a running buffer HBS-EP solution (GE) was applied and then the resonance angle upon dissociation of the antibody from the CAPRIN-1 molecule was measured, and then the RU value at this time was obtained. An antibody solution was similarly applied to a reference control (reference cell) sensor chip, the resonance angle at the time of immobilization reaction and the resonance angle at the time of dissociation reaction were measured, and thus the background RU values were obtained. […] Association rate constant (kₒₙ) and dissociation rate constant (koff) were found from the thus obtained RU value at each antibody concentration using affinity analysis software BIA evaluation, so that affinity constant Ka(=kₒₙ/koff) was calculated.

B1: human-chicken chimeric antibody #1 having the chicken monoclonal antibody #1 variable region (antibody, V domains shown)
VH: AVTLDESGGGLQMSRGGLSLVCKASGFDFSSYQMNWIRQAPGKGLEFVAAINKFGNSTGHGAAVKGRVTISRDNGQSTVRLQLNNLRAEDTAIYFCTKHAYGYCGSGTWCAAGEIDAWGHGTEVIVSS
VL: QAASTQPSSVSANPGETVEITCSGGGSYSYGWFQQKSPGSAPVTVIYYNNKRPSDIPSRFSGSKSGSTGTLTITGVQADDEAVYYCGSGDSTDTAVFGAGTTLTVLG
notes: also called anti-CAPRIN-1 antibody #1; human-chicken chimeric monoclonal antibody (#1); not shown: human IgG1 H-chain constant region; human IgG1 L-chain constant region
cytotoxic activity (ADCC) against A549 [1]: 36.3% | cytotoxic activity (ADCC) against ACHN [1]: 26% | cytotoxic activity (ADCC) against AML5 [1]: 13.1% | cytotoxic activity (ADCC) against Caki-1 [1]: 27% | cytotoxic activity (ADCC) against KYSE180 [1]: 27.6% | cytotoxic activity (ADCC) against MDA-MB-157 [1]: 40% | cytotoxic activity (ADCC) against MNK28 [1]: 21.7% | cytotoxic activity (ADCC) against MNK45 [1]: 25.3% | cytotoxic activity (ADCC) against QG56 [1]: 33% | cytotoxic activity (ADCC) against Ramos [1]: 11.7% | cytotoxic activity (ADCC) against SW480 [1]: 26.9% | cytotoxic activity (ADCC) against SW756 [1]: 29.7% | cytotoxic activity (ADCC) against T24 [1]: 25.6% | cytotoxic activity (ADCC) against T98G [1]: 18% | cytotoxic activity (ADCC) against U373 [1]: 23.3% | Ka [2]: 4.6e+07 M⁻¹
